Source: ChEMBL document CHEMBL1122575, “Dependence of beta-lactamase stability on substructures within beta-lactam antibiotics” (J Med Chem, 1984)

What was measured:
[1] = substrate: CC1(C)SC2[C@H](NC(=O)c3ccccc3)C(=O)N2C1C(=O)O; test: (§1) Stability against beta-lactamase of Staphylococcus aureus
[2] = substrate: CC1(C)S[C@@H]2[C@H](NC(=O)Cc3ccccc3)C(=O)N2[C@H]1C(=O)O; test: as §1
[3] = substrate: COc1cccc(OC)c1C(=O)N[C@@H]1C(=O)N2C1SC(C)(C)C2C(=O)O; test: as §1

B1: Beta-lactamase (Staphylococcus aureus), P00807 (protein)
chain: MKKLIFLIVIALVLSACNSNSSHAKELNDLEKKYNAHIGVYALDTKSGKEVKFNSDKRFAYASTSKAINSAILLEQVPYNKLNKKVHINKDDIVAYSPILEKYVGKDITLKALIEASMTYSDNTANNKIIKEIGGIKKVKQRLKELGDKVTNPVRYEIELNYYSPKSKKDTSTPAAFGKTLNKLIANGKLSKENKKFLLDLMLNNKSGDTLIKDGVPKDYKVADKSGQAITYASRNDVAFVYPKGQSEPIVLVIFTNKDNKSDKPNDKLISETAKSVMKEF
**Q.** B1 was tested. Which Km [1] did it give?
**A.** The Km was 33 µM.

**Q.** And the Km [2]?
**A.** The Km was 12 µM.

**Q.** What about the Km [3] of the same protein?
**A.** Its Km is 5000 µM.
